In patent US7074595B2, “General means of labeling protein by using wheat embryo cell-free protein synthesis system” (CellFree Sciences Co., Ltd., priority 2000, dated 2006):

Columns and labels:
Type in all cases: biochemical
[1] = substrate: NC(=O)C1=CN([C@@H]2O[C@H](COP(=O)(O)OP(=O)(O)OC[C@H]3O[C@@H](n4cnc5c(N)ncnc54)[C@H](OP(=O)(O)O)[C@@H]3O)[C@@H](O)[C@H]2O)C=CC1; assay: enzymatic properties of DHFR (Table 1): Michaelis constant and maximum velocity, Met-DHFR; details: other: Met-DHFR
Experimental: (§1) Purification of GFP and measurement of its activity by analysis of fluorescence spectrum using a fluorospectrophotometer were carried out in accordance with a method by Deschamps, et al. [Deschamps, J. R. et al., (1995) Protein Expression and Purification, 6, 555–558]. In the measurement of fluorescence spectrum, a fluorophotometer of type RF-5000 by Shimadzu was used. DHFR activity was measured by a method of Stanley, et al. [Methods. Enzymol. 18, 195–199 (1971)].
(§2) Then enzymatic properties of the selenomethionine-containing proteins purified as such were investigated biochemically. Fluorescence emission spectrum of a certain concentration of the purified GFP preparation shown in FIG. 2 excited at the wavelength of 395 nm was measured within a range of 410 nm to 600 nm and the result is shown in FIG. 3. As will be apparent from FIG. 3, there is no difference between the fluorescence emission spectra of GFP [(A) in FIG. 3] and selenomethionine GFP [(B) in FIG. 3]. Thus, the conclusion is that the change in GFP activity by substituting methionine residue with selenomethionine is not higher than the usual measurement sensitivity. […]

[2] = substrate: NC(=O)C1=CN([C@@H]2O[C@H](COP(=O)(O)OP(=O)(O)OC[C@H]3O[C@@H](n4cnc5c(N)ncnc54)[C@H](OP(=O)(O)O)[C@@H]3O)[C@@H](O)[C@H]2O)C=CC1; assay: enzymatic properties of DHFR (Table 2): Michaelis constant and maximum velocity, Heavy Hydrogen-Labeled DHFR; details: other: Heavy Hydrogen-Labeled DHFR
Experimental: as §1
With regard to the wheat embryo, that being contaminated with substantially no endosperm component prepared by the method mentioned in Example 1 was used. Preparation of an extract from wheat embryo was carried out by the exactly same method as Example 1 except that the solution for extraction and the solution used for gel filtration contained 20 kinds of heavy hydrogen-labeled L-amino acids instead of 20 kinds of selenomethionine-containing L-amino acids. Concentration of the prepared extract was adjusted to 170˜250 A260 nm (A260/A280=1.5).
Although the composition of the protein synthesis reaction solution is as same as that described in Example 1, it contains 20 kinds of heavy hydrogen-labeled L-amino acids instead of 20 kinds of selenomethionine-containing L-amino acids.
Then enzymatic properties of the purified heavy hydrogen-labeled DHFR were biochemically investigated by the same manner as in Example 1. […]

[3] = substrate: NC(=O)C1=CN([C@@H]2O[C@H](COP(=O)(O)OP(=O)(O)OC[C@H]3O[C@@H](n4cnc5c(N)ncnc54)[C@H](OP(=O)(O)O)[C@@H]3O)[C@@H](O)[C@H]2O)C=CC1; assay: enzymatic properties of DHFR (Table 1): Michaelis constant and maximum velocity, SeMet-DHFR; details: other: SeMet-DHFR
Experimental: as §1, §2

[4] = substrate: NC(=O)C1=CN([C@@H]2O[C@H](COP(=O)(O)OP(=O)(O)OC[C@H]3O[C@@H](n4cnc5c(N)ncnc54)[C@H](OP(=O)(O)O)[C@@H]3O)[C@@H](O)[C@H]2O)C=CC1; assay: enzymatic properties of DHFR (Table 2): Michaelis constant and maximum velocity, Natural-Type DHFR; details: other: Natural-Type DHFR
Experimental: as §1
Then enzymatic properties of the purified heavy hydrogen-labeled DHFR were biochemically investigated by the same manner as in Example 1. As will be apparent from Table 2, both Vmax and Michaelis constant (Km) to NADPH which are parameters for enzymatic chemical property of natural-type DHFR and heavy hydrogen-labeled DHFR show no difference between both enzymes. Thus, it became clear that DHFR comprising heavy hydrogen-labeled amino acids maintained nearly the same enzymatic activity as the natural-type DHFR.

B1: dihydrofolate reductase (DHFR), natural-type methionine-containing (Met-DHFR) (Escherichia coli K-12) (protein)
chain: MISLIAALAVDRVIGMENAMPWNLPADLAWFKRNTLNKPVIMGRHTWESIGRPLPGRKNIILSSQPGTDDRVTWVKSVDEAIAACGDVPEIMVIGGGRVYEQFLPKAQKLYLTHIDAEVEGDTHFPDYEPDDWESVFSEFHDADAQNSHSYCFEILERR
notes: made in house; host or cells: wheat embryo extract cell-free protein synthesis (dialysis type)
Km [1]: 11.2 µM

B2: dihydrofolate reductase (DHFR), Heavy Hydrogen-Labeled DHFR (20 kinds of heavy hydrogen-labeled L-amino acids) (Escherichia coli K-12) (protein)
chain: MISLIAALAVDRVIGMENAMPWNLPADLAWFKRNTLNKPVIMGRHTWESIGRPLPGRKNIILSSQPGTDDRVTWVKSVDEAIAACGDVPEIMVIGGGRVYEQFLPKAQKLYLTHIDAEVEGDTHFPDYEPDDWESVFSEFHDADAQNSHSYCFEILERR
notes: as for B1
Km [2]: 14.7 µM

B3: dihydrofolate reductase (DHFR), selenomethionine-containing (SeMet-DHFR) (Escherichia coli K-12) (protein)
chain: MISLIAALAVDRVIGMENAMPWNLPADLAWFKRNTLNKPVIMGRHTWESIGRPLPGRKNIILSSQPGTDDRVTWVKSVDEAIAACGDVPEIMVIGGGRVYEQFLPKAQKLYLTHIDAEVEGDTHFPDYEPDDWESVFSEFHDADAQNSHSYCFEILERR
notes: as for B1
Km [3]: 10.2 µM

B4: dihydrofolate reductase (DHFR), Natural-Type DHFR (Escherichia coli K-12) (protein)
chain: MISLIAALAVDRVIGMENAMPWNLPADLAWFKRNTLNKPVIMGRHTWESIGRPLPGRKNIILSSQPGTDDRVTWVKSVDEAIAACGDVPEIMVIGGGRVYEQFLPKAQKLYLTHIDAEVEGDTHFPDYEPDDWESVFSEFHDADAQNSHSYCFEILERR
notes: as for B1
Km [4]: 13.2 µM
